How the values were obtained:
GST-ZZ122-175^N132D = GST-ZZ122-175^N132D pulldown from HeLa lysates (MG132 plus TG); format: binding, human; conditions: HeLa lysate, immunoblot
Text: Using these lysates and purified GST tagged ZZ122-175^N132D (Supplementary Fig. 4A) immobilized on glutathione resin, we performed pulldown assays. […] In addition to pulling down R-BiP and R-CRT, GST-ZZ122-175^N132D was able to capture polyubiquitinated proteins, which were also disrupted by the D129A mutation and RA dipeptide competition (Supplementary Fig. 4B). This was expected because arginylated proteins are known to be ubiquitinated by E3 ligases containing a UBR box leading to their proteasomal degradation.
Fig. 4 ZZ122-175 ^N132D is capable of capturing known arginylated proteins in cells. a Western blot analysis to visualize arginylated BiP and CRT. […] N-terminally arginylated BiP and CRT were detected by immunoblotting using anti R-BiP and R-CRT antibodies. b GST pulldown assays to test the ability of wild type (WT) and N132D GST-ZZ in capturing cellular R-BiP and R-CRT. […] Pulled down R-BiP and R-CRT were detected using anti R-BiP and R-CRT antibodies. c Schematic drawing illustrating R-catcher. […] R-catcher bound arginylated proteins were detected by immunoblotting using anti-Myc or Flag antibody. e R-catcher pulldown assay to capture R-BiP and R-CRT induced in HeLa cells stimulated with MG132 plus TG in the absence or presence of 20 mM dipeptides TEXT PRINTED IN THE PICTURE: (C) R-catcher: ~ 9 kDa

R-catcher = assay: Small-scale R-catcher pulldown of known arginylated proteins; format: binding, human; conditions: HeLa, MG132 plus TG, Fig. 4e
Protocol: For small-scale R-catcher pull-down assays, 300 µg of purified R-catcher was conjugated with 120 µl of Strep-Tactin sepharose resin by incubating overnight at 4 °C. To test R-catcher’s ability to capture known arginylated proteins, such as R-BiP, R-PDI, R-nsP4 and R-RGS4, plasmids encoding Ub-X-(BiP, PDI and nsP4) or MX-RGS4 (X = Arg or Val) were transiently transfected into HEK293 cells. After 24 h, cells were treated with 10 µM MG132 and 100 nM thapsigargin for another 24 h. Cells were harvested and lysed in hypotonic buffer and 300 µg total protein was incubate with 25 µl R-catcher-sepharose resin in binding buffer (20 mM HEPES pH 7.9, 0.05% Tween 20, 10% glycerol, 0.2 M KCl, protease inhibitor and phosphatase inhibitor) for 3 h with gentle rotation at 4 °C. After three washes with binding buffer, bound proteins were dissociated with 2 × SDS sample buffer and boiling at 100 °C and subjected to immunoblotting using anti-myc or flag antibodies.

[1] = tested on: HeLa cell extracts stimulated with MG132 plus TG; assay: Large-scale R-catcher pulldown coupled to silver staining and LC-MS/MS; parameters: species or system human; conditions: LC-MS/MS working list
Protocol: For large-scale R-catcher pulldown assays, HeLa cells were treated with 5 µM MG132 and 100 nM thapsigargin for 24 h. Cells were lysed in hypotonic buffer and 10 mg total was incubated with 750 µl R-catcher-sepharose beads for 3 h at 4 °C after pre-clearing with D129A mutant R-catcher-sepharose beads for 3 h at 4 °C. After three washes with binding buffer, bound proteins were eluted with binding buffer containing 20 mM D-biotin. To remove R-catcher, the eluent was dialyzed using 20 kDa cut-off dialysis membrane in binding buffer containing 3.5 M MgCl2 overnight followed by another overnight dialysis in distilled-deionized water. The dialyzed eluent was lyophilized overnight and dried powder was dissolved in 100 µl LC/MS solubilizer for silver staining and mass spectrometry analysis.
Protein samples solubilized in Invitrosol LC/MS solubilizer (Invitrogen) as following by manufacturer protocol. For removal of incompatible buffer components, protein samples filtrate with 10 K MW ultrafilter for complete digestion. […]
Peptides were analyzed using a LC–MS/MS system consisting of an Easy nLC 1000 (Thermo Fisher scientific) and an Orbitrap Fusion Lumos mass spectrometer (Thermo Fisher Scientific) equipped with a nano-electrospray source (EASY-Spray Sources, Thermo Fisher Scientific). […]
MS/MS spectra were analyzed using the following software analysis protocols with the Uniprot human DB (2019). […]

B1: R-CRT: Nt-arginylated CRT (protein)
chain: REPAVYFKEQFLDGDGWTSRWIESKHKSDFGKFVLSSGKFYGDEEKDKGLQTSQDARFYALSASFEPFSNKGQTLVVQFTVKHEQNIDCGGGYVKLFPNSLDQTDMHGDSEYNIMFGPDICGPGTKKVHVIFNYKGKNVLINKDIRCKDDEFTHLYTLIVRPDNTYEVKIDNSQVESGSLEDDWDFLPPKKIKDPDASKPEDWDERAKIDDPTDSKPEDWDKPEHIPDPDAKKPEDWDEEMDGEWEPPVIQNPEYKGEWKPRQIDNPDYKGTWIHPEIDNPEYSPDPSIYAYDNFGVLGLDLWQVKSGTIFDNFLITNDEAYAEEFGNETWGVTKAAEKQMKDKQDEEQRLKEEEEDKKRKEEEEAEDKEDDEDKDEDEEDEEDKEEDEEEDVPGQAKDEL
GST-ZZ122-175^N132D
  pulldown by GST-ZZ122-175^N132D: efficiently pull down

B2: CRT: ER chaperone calreticulin, arginylated (protein)
chain: B1 chain
R-catcher
  pulldown by R-catcher, endogenous: could pulldown
[1]
  presence in R-catcher working list: among the known arginylated proteins

From paper PMC8038991, “R-catcher, a potent molecular tool to unveil the arginylome” (Cellular and Molecular Life Sciences: CMLS, 2021)
